Results on five molecules are retold here after paper PMC9348755 (Science (New York, N.y.), 2022).

The labels stand for the following.
B1: C13C9 mAb (antibody, V domains shown)
VH: EVQLVQSGPEVKKPGTSARVSCKASGFTSKNTALQWVRQARGQPLEWMGWIDISNYITNYAQKFRGRLTITWDLSASMAYMELSSLRSEDTAVYYCAAVGKDDDVLTGGNKYFDHWGQGTLVTVSS
VL: SYELTQPPSVSVSPGQTARITCSGDALPKKYAYWYQQKSGQAPVLVIHEDDKRPSGIPGRFSASSSGTTATLTISGAQVEDEADYYCYSTDTNDNHAFGSGTKLTVL
notes: also called Group 3 mAb; fusion peptide-specific mAb
B2: C77G12 mAb (antibody, V domains shown)
VH: EVQLVESGGGVVQPGRSLRISCAVSGFTFGSYAMHWVRQAPGKGLEWVGVMSSDGHNEYYADSVKGRFTISRDNSRNKLYLEMNNLRVDDTAVFYCARGSDYVDDSPPLHYWGQGTLVTVSS
VL: DIQLTQSPSSLSASIGDRVTITCRASQDIANKLAWFQQAPGKAPKSLIYAASRLQSGVPSQFSGSGSGTDFTLTIESLQAGDFATYFCQQYDSFPFTFGPGTKVDVK
notes: as for B1
B3: VN01H1 mAb (antibody, V domains shown)
VH: EVQLVESGGGLVLPGGSLRLSCSASGFTFSDFSMHWVRQSPGKGLEYVSAITSSGSSTYYPDSVKGRFTISRDNSKNTLYLQMGSLRVEDTAVYWCVKNSDVFRFPHLYFDVWGRGTLVTVSS
VL: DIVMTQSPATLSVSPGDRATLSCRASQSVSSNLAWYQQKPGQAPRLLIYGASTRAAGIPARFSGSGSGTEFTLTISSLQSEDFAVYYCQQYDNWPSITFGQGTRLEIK
notes: as for B1
B4: C13B8 mAb (antibody, V domains shown)
VH: QVQLQESGPGLVQPSQTLTLTCTVSGDSISNEDYHWTWIRQHPGKGLEWMGYLQYSGNTNYNPSLKSRMTISVDTSKNQFSLRLNSVTAADTAVYFCATSIVLTGMSNKIQPFDYWGQGTLVTVSS
VL: SYELTQPPSVSVSPGQMARITCSGEALPKKYAYWYQQKGGQFPVLVIYKDTERPSGIPERFSGSSSGTIVTLTISGVQPEDEADYYCLSADTSGTWVFGGGTKLTVL
notes: as for B1
B5: VP12E7 mAb (antibody, V domains shown)
VH: QVQLVQSGGGVVQPGESLRLSCSGSGFTFNNYIMHWVRQAPGQGLDYVSGIGSDGRNTNYGDSVKGRFTISRDNSKDTLYLQMTSLRAEDTAFYYCVKGLDVLRFLDLSTPSGERLDAFDIWGQGTMVTVSS
VL: DIVMTQSPSFLSASVGDRVTITCRASQGISNYLAWYQQKPGKAPHLLIYAASTLQSGVPSRFSGSGSGTEFTLTISSLQPEDFATYYCQQLNSYPLFTFGPGTKVDIE
notes: as for B1

The assay addresses prefusion PentaPro (F817) SARS-CoV-2 S2 (SARS-CoV-2 (Wuhan-Hu-1 assumed), UniProt P0DTC2, stabilised). In words: ELISA. The following applies: both partners purified.
On to B1, for which the binding result is on record as “binds”. To B2 belongs “binds”; to B3, “binds”. The result for B4 reads “binds”. As to B5, the binding result is given as “binds”.
